Holding throughout (test): SPR, release and stability method, specific binding activity
A general note: SPR reads the build-up and loss of mass on a sensor chip optically.

One test deals with T1, FcRn (UniProt P55899 24-297; P61769 21-119, limits assumed).
T1 construct: also called FcRNn
On the procedure:
(§1) Antigen, FcγRIIIa, and FcRn specific binding activity of the purified DL variants was measured using SPR. Antigen, FcγRIIIa and FcRN analyses were performed using a release and stability surface plasmon resonance (SPR) method. The specific binding activities measured were between 80-110% for the purified DL variants. […] Despite the trend observed, the decrease in binding activity as a function of drug load is minimal and remains within specification acceptance criteria. It has been observed that as the DAR increases, there is no significant change in antigen FcγRIIIa binding by SPR and antibody-dependent cell-mediated cytotoxicity (ADCC) activity.

The target of test [1] is T2, BCMA (the 'Antigen' of the SPR antigen binding assay) (human, UniProt Q02223 1-54, limits assumed).
T2 construct: also called human BCMA
T2 sequence (looked up): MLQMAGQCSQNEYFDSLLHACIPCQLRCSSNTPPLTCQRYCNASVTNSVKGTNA
On the procedure: as §1

The next test has as its target T3, FcγRIIIa (UniProt P08637 17-208, limits assumed).
T3 construct: also called FcyRIIIa
How it is done:
as §1

T1 sequence (P55899 24-297 limits assumed, chain 1 of 2): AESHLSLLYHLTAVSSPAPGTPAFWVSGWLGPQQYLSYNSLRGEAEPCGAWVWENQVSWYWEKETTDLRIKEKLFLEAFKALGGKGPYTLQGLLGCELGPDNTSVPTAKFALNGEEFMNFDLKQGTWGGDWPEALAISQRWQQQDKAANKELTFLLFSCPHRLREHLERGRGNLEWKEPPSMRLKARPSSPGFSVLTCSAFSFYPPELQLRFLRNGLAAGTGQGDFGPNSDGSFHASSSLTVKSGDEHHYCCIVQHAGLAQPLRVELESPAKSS
T1 sequence (P61769 21-119 limits assumed, chain 2 of 2): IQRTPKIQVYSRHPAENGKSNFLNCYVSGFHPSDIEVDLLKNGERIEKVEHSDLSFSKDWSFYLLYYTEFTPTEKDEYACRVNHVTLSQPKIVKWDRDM
T3 sequence (P08637 17-208 limits assumed): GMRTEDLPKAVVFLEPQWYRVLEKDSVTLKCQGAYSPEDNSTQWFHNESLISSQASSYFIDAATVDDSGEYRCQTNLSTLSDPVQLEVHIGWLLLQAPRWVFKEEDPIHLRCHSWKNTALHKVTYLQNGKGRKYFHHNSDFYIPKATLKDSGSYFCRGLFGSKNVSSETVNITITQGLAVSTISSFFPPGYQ

B1: purified DL4a drug-load variant of belantamab mafodotin (antibody, human IgG1, kappa)
heavy: not shown
light: not shown
modifications: mcMMAF on each LC C214 (sequential numbering); mcMMAF on each HC C224 (sequential numbering)
notes: Antibody drug conjugate, drug load of four
B1: the “FcRNn Binding (%) (specific binding activity)” value (shortened to “FcRNn Binding (%)”) in the test with FcRn came out at 102%. The “Antigen Binding (%) (specific binding activity)” value (“Antigen Binding (%)” for short) in test [1] amounted to 95%. For the same molecule, the “FcyRIIIa Binding (%) (specific binding activity)” value (from here on “FcyRIIIa Binding (%)”) with FcγRIIIa is 103%.

B2: purified DL2 drug-load variant of belantamab mafodotin (antibody, human IgG1, kappa)
heavy: not shown
light: not shown
modifications: mcMMAF on LC C214 of one of the two light chains (sequential numbering); mcMMAF on HC C224 of one of the two heavy chains (sequential numbering)
notes: Antibody drug conjugate, drug load of two; also called DL2a
Consider B2, for which the “FcRNn Binding (%)” value with FcRn came out at 109%. In addition, in test [1], the “Antigen Binding (%)” value stood at 99%. Besides, the “FcyRIIIa Binding (%)” value with FcγRIIIa was 104%.

B3: purified DL0 drug-load variant of belantamab mafodotin (unconjugated belantamab) (antibody, human IgG1, kappa)
heavy: not shown
light: not shown
notes: HIC-purified fraction of belantamab mafodotin
Regarding B3, in the test with FcRn, the “FcRNn Binding (%)” value worked out at 108%. Further, the “Antigen Binding (%)” value in test [1] turned out to be 103%. The “FcyRIIIa Binding (%)” value in the test with FcγRIIIa is 110%.

B4: purified DL8 drug-load variant of belantamab mafodotin (antibody, human IgG1, kappa)
heavy: not shown
light: not shown
modifications: mcMMAF on each LC C214 (sequential numbering); mcMMAF on HC C224, HC C230 and HC C233 of both heavy chains (sequential numbering)
notes: Antibody drug conjugate, drug load of eight
B4: in the test with FcRn, the “FcRNn Binding (%)” value came to 93%. Besides, the “Antigen Binding (%)” value in test [1] was 86%. In the test with FcγRIIIa, the “FcyRIIIa Binding (%)” value came to 82%.

B5: purified DL4b drug-load variant of belantamab mafodotin (antibody, human IgG1, kappa)
heavy: not shown
light: not shown
modifications: mcMMAF on HC C230 and HC C233 of both heavy chains (sequential numbering)
notes: Antibody drug conjugate, drug load of four at the hinge
Consider B5, for which, in the test with FcRn, the “FcRNn Binding (%)” value was 99%. The “Antigen Binding (%)” value in test [1] was 90%. The “FcyRIIIa Binding (%)” value with FcγRIIIa came out at 91%.

Values taken from US20240369568A1 (GlaxoSmithKline, published 2024).
